Substrate in data set [1]: OC[C@H]1O[C@@](CO)(O[C@H]2O[C@H](CO)[C@@H](O)[C@H](O)[C@H]2O)[C@@H](O)[C@@H]1O
The data set is described as follows: Inhibition of SI-catalyzed hydrolysis of sucrose (SI/sucrose), coupled HK/G6PDH optical test. The data set is classed as biochemical, hog. The settings on record: other: SI/sucrose basic kinetics, substrate, mean, 37° C., pH 7.0.

Substrate in data set [2]: OC[C@H]1O[C@H](O[C@H]2[C@H](O)[C@@H](O)[C@H](O)O[C@@H]2CO)[C@H](O)[C@@H](O)[C@@H]1O
The data set is described as follows: Inhibition of SI-catalyzed hydrolysis of maltose (SI/maltose), coupled HK/G6PDH optical test. The data set is classed as biochemical, hog. Conditions: other: SI/maltose basic kinetics, substrate, mean, 37° C., pH 7.0.

We go through one protein from US7056900B2, “Disaccharide derivatives for treating hyperglycaemia” (Sudzucker Aktiengesellschaft Mannheim Ochsenfurt, priority 1997, dated 2006).

B1: sucrase/isomaltase (SI) (Sus scrofa) (protein)
chain: MARKKFSGLEISLIVLFAIVTIIAIALVVVLATKTPAVEEISDSTSTPATTRTTTPYPGSGKCPSELNDPINERINCIPDQFPTQTLCATRGCCWKPWNDSIIPWCFFVDNHGYNVEGTTSTNTGLEAKLNRIPSPTLFGDDINSVLLTTQSQTPNRFRFKITDPNNRRYEVPHQFVKEFSGTAASDTLYDVQVIENPFSIKIIRKSNNRILFDTSIGPLVYSDQYLQLSARLSSEYIYGIGEHIHKRFRHDLYWKTWPIFTRDQLPGDNNNNLYGHQTFFMCIEDTSGKSFGVFLMNSNAMEIFIQPTPIVTYRIIGGILDFYIFLGDTPEQVVQQYQELIGRPAMPAYWSLGFQLSRWDYKSLDVVKEVVQRNREAGIPFDTQVTDIDYMEDKKDFTYDHVAFNGLPEFVQDLHDHGQKYVIILDPAISIQKLASGAAYETYDRGTAQNVWINESDGTTAIIGEVWPGLTVYPDFTSPNCIEWWANECSIFHQVVNYDGLWIDMNEVSSFVHGSEKGCSDNKLNYPPFTPGILDKLLYAKTVCMDSVQYWGKQYDVHSLYGYSMAIATEKAVEKVFRNKRSFILTRSTFAGSGSHAAHWLGDNTASWEQMEWSITGMLEFSLFGIPLVGADICGFVVETTEELCRRWMQLGAFYPFSRNHNAQGYEHQDPAFFGQNSLLVNSSKHYLNIRYTLLPFLYTLFYKAHMFGETVVRPILHEFYEDTNSWIEDTQFLWGPSLLITPVLKQGASTVSAYIPNATWYDYETGAKRPWRKQRVDMYLPADKIGLHLRGGYIIPIQQPAVTTTASRKNPLGLIVALDEYNTAEGDFFWDDGETKDTIQNGSYIFYTFSVSNNKLDIMCTHSSYQEGTTLAFETIKILGLIDAVTEVSVVEGDQPMSAHYNFTYDASNQYLLIYNLKFNLGRNFTVQWDQTFLDAEKFTCYPDTDTITKELCEERGCLWQESHLESKAPECFFPKEDNSYLVQSTQYSSLGVTADLQLNTASTRIKLPSDPIPTLRVEVKYHKDYMLQFKIYDPQNKRYEVPVPLNIPTTPTSTYENRLYDVEIKENPFGIQIRRRSTGKVIWDSRLPGFAFNNQFIQISTRLPSEYIYGFGEVEHTAFKRDLNWNTWGMFTRDQPPGYKLNSYGFHPYYMALEDESHAHGVLLLNSNAMDVTFQPTPALTYRIIGGILDFYMFLGPSPEVATKQYHEVIGRPVMPPYWALGFQLCRYGYRNTSQVEEVYNDMVTAQIPYDVQYTDIDYMERQLDFTIGEEFRELPKFVDKIRNEGMRYIIILDPAISGNETEPYPAFDRGQEKDVFVKWPNTSDICWAKVWPDLPNVTIDESLTEDEAVNASRAHVAFPDFFRNSTAEWWAREIIDFYNNQMKFDGLWIDMNEPSSFVNGTTTNQCRNTELNYPPYFPELTKRTEGLHFRTMCMETEQILSDGSSVLHYDVHNLYGWSQVKPTYDALQKATGKRGIVISRSTYPTAGRWAGHWLGDNYAKWDNLDKSIIGMMEFSLFGISYTGADICGFFNNSEYQLCARWMQLGAFYPYSRNHNIAFTRRQDPASWNETFSEMSRNILNIRYTLLPYFYTQMHEIHAYGGTVIRPLLHEFFNEKPTWDIFKQFLWGPAFLVTPVLEPFADTVQGYVPNARWFDYHTGKDIGIRETFHIFSAPLYEINLHVRGGHILPCQEPAQNTFFSRQNFMKLIVAADDNQTAQGNLFWDDGETIDTYERDLYFLVQFNFNKSILTSTILKNSYINRNEMRLGYVLIWGKEKTSVNEVNLIYNGNKETVPFVEDLNQEILNIDLRGLNVTLDEPIEISWS
notes: isolated by papain digestion from hog small intestine mucosa and enriched by ammoniumsulfate precipitation; from tissue; host or cells: hog small intestine mucosa
With B1, in data set [1], the Michaelis constant (Km) (as a rule, the concentration of substrate that gives half-maximal velocity) came to 58.8 ± 11.4 mM and the maximal velocity (Vmax) (commonly the top rate of the reaction or transport when substrate is in excess) was 7700 µM/min. Also, in data set [2], the Michaelis-Menten constant (Km) worked out at 11.2 ± 2.6 mM and the Vmax came to 5900 µM/min.
